From IntAct's records for PubMed 16286920 come the findings set out here.

Sequences and labels used below:
B1: Galectin-9 (Mus musculus), O08573-2 (parent)
chain: MALFSAQSPYINPIIPFTGPIQGGLQEGLQVTLQGTTKSFAQRFVVNFQNSFNGNDIAFHFNPRFEEGGYVVCNTKQNGQWGPEERKMQMPFQKGMPFELCFLVQRSEFKVMVNKKFFVQYQHRVPYHLVDTIAVSGCLKLSFITFQTQNFRPAHQAPMAQTTIHMVHSTPGQMFSTPGIPPVVYPTPAYTIPFYTPIPNGLYPSKSIMISGNVLPDATRFHINLRCGGDIAFHLNPRFNENAVVRNTQINNSWGQEERSLLGRMPFSRGQSFSVWIICEGHCFKVAVNGQHMCEYYHRLKNLQDINTLEVAGDIQLTHVQT

Variants of B1 are the subject of the test. To be noted: with havr2_mouse Havcr2, Q8VIM0.
Sequence of havr2_mouse Havcr2, Q8VIM0 (Q8VIM0 whole entry): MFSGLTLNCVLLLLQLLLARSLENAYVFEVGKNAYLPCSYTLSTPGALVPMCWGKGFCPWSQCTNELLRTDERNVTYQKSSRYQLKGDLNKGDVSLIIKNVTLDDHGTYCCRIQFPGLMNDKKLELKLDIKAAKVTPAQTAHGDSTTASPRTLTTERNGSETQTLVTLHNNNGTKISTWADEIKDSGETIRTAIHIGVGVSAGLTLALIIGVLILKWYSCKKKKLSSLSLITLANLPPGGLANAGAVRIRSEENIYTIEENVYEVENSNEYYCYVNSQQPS
For R64A;R238A, the “effect of a mutation on the interaction” value is “disrupting interaction strength”.

For the variant R64A, the “effect of a mutation on the interaction” value was “decreasing interaction strength”.

For R238A, the “effect of a mutation on the interaction” value is “decreasing interaction strength”.
